Experimental findings from US20230242646A1 (JJP BIOLOGICS SP Z O O, published 2023) are described below.

In experiment [1] the target is T1, membrane-bound full-length human CD89 on HEK293F cells (human, UniProt P24071 22-287).
T1 construct: 2 or transient transfectants; also called membrane human CD89; human FcaRI
Briefly: FACS HEK293F-huCD89.
Method: After extensive washing in PBS/BSA/NaN₃, cells were subsequently incubated with 1:200 diluted PE-conjugated goat anti-human IgG Fcy-specific antibodies (Jackson ImmunoResearch) for 30 minutes at 4° C. After extensive washing in PBS/BSA/NaN₃, cells were fixed in 2% formaldehyde in PBS/BSA/NaN₃ for 30 minutes at 4° C.

Experiment [2] concerns the target T2, recombinant C-terminal polyhistidine-tagged human (extracellular) CD89 (Sino Biological) (human, UniProt P24071 22-227).
T2 construct: extracellular domain; bought protein; also called rhuCD89; soluble monomeric rhuCD89
Briefly: ELISA, coated rhuCD89.

For experiment [3], the target named is membrane human CD89 on ex vivo primary human neutrophilic granulocytes or monocytic U937 cells (human, UniProt P24071 22-287). The experiment in a line: cell-based or functional assay.
The target of experiment [4] is T1, membrane-bound full-length human CD89 …. Briefly: FACS HEK293F-huCD89, 10 ug/mL; competitor PE-A59.
Method: (§1) Then, 10 µL/tube (i.e., 0.1 × 10⁶ cells) of these cells were incubated with or without 100 µL purified mouse anti-human CD89 antibody at 10 µg/mL (in PBS/BSA/NaN₃) for 30 minutes at 4° C. […] After extensive washing in PBS/BSA/NaN₃, cells were fixed in 2% formaldehyde in PBS/BSA/NaN₃ for 30 minutes at 4° C.
Experiment [5] shares this target. The experiment in a line: FACS HEK293F-huCD89, 10 ug/mL; competitor PE-MIP8a.
Method: as §1
In experiment [6] the target is T3, chimeric bovine EC1-Fcgamma2R/human EC2-CD89 on HEK293F cells (bovine/human chimera).
T3 chain: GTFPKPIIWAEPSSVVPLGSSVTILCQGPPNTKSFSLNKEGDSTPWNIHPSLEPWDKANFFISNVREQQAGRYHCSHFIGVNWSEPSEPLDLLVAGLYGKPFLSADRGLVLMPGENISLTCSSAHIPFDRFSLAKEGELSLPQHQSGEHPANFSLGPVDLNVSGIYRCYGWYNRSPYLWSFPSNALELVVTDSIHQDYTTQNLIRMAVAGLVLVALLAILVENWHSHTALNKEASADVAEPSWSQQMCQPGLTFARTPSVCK
The experiment in a line: FACS, transiently transfected HEK293F. (In flow cytometry, cells or beads pass a laser one at a time.)

The target in experiment [7] is T4, membrane full-length bovine Fcgamma2R on HEK293F cells (bovine).
T4 construct: also called bovine Fcy2R
T4 chain: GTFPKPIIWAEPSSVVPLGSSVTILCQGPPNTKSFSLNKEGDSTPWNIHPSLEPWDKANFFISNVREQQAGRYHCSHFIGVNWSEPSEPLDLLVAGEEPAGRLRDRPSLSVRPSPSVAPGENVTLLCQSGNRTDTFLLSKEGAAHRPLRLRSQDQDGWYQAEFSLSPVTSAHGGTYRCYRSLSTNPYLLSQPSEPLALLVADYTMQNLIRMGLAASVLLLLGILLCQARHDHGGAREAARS
The experiment in a line: FACS, transiently transfected HEK293F.

The target of experiment [8] is T5, chimeric human EC1-CD89/bovine EC2-Fcgamma2R (bovine TM and IC) on HEK293F cells (human/bovine chimera).
T5 construct: also called human EC1-CD89 (version with bovine transmembrane-intracellular region)
Briefly: FACS, 10 µg/mL, transiently transfected HEK293F.
Method: (§2) To this end, transient transfected HEK293F cells were put at 10 × 10⁶ cells/mL in ice-chilled phosphate-buffered saline containing 0.1% BSA (Sigma)/0.05% NaN₃ (PBS/BSA/NaN₃) supplemented with 50 µg/mL human IgGs (blocking Fcy receptors; Sigma) for 10 minutes at 4° C. Then, 10 µL/tube (i.e., 0.1 × 10⁶ cells) of these cells were incubated with or without 100 µL purified mouse anti-human CD89 antibody at 10 µg/mL (in PBS/BSA/NaN₃) for 30 minutes at 4° C. […] After extensive washing in PBS/BSA/NaN₃, cells were subsequently incubated with 1:200 diluted PE-conjugated goat anti-mouse IgG Fcy-specific antibodies (Jackson ImmunoResearch) for 30 minutes at 4° C. After extensive washing in PBS/BSA/NaN₃, cells were fixed in 2% formaldehyde in PBS/BSA/NaN₃ for 30 minutes at 4° C.

The target of experiment [9] is T6, chimeric human EC1-CD89/bovine EC2-Fcgamma2R (human TM and IC) on HEK293F cells (human/bovine chimera).
T6 construct: also called human EC1-CD89 (version with human transmembrane-intracellular region)
The experiment in a line: FACS, 10 µg/mL, transiently transfected HEK293F.
Method: as §2

The target of experiment [10] is T7, chimeric human/cynomolgus monkey CD89-I on HEK293F cells (human/cynomolgus chimera, UniProt P24071 22-287).
T7 construct: also called dGln22 - Lys46 human EC1-CD89; I (22-46)
T7 chain: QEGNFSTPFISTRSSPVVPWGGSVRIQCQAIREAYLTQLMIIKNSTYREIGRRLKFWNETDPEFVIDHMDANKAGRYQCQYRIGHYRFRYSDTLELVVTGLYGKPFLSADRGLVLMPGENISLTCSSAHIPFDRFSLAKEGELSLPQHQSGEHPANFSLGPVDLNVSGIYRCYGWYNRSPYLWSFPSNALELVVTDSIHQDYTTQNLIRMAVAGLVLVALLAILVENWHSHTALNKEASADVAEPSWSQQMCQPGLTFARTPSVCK
Briefly: FACS, 10 µg/mL, transiently transfected HEK293F.
Method: (§3) To this end, transient transfected HEK293F cells were put at 10 × 10⁶ cells/mL in ice-chilled phosphate-buffered saline containing 0.1% BSA (Sigma)/0.05% NaN₃ (PBS/BSA/NaN₃) supplemented with 50 µg/mL human IgGs (blocking FcY receptors; Sigma) for 10 minutes at 4° C. Then, 10 µL/tube (i.e., 0.1 × 10⁶ cells) of these cells were incubated with or without 100 µL purified mouse anti-human CD89 antibody at 10 µg/mL (in PBS/BSA/NaN₃) for 30 minutes at 4° C. […] After extensive washing in PBS/BSA/NaN₃, cells were subsequently incubated with 1:200 diluted PE-conjugated goat anti-mouse IgG Fcy-specific antibodies (Jackson ImmunoResearch) for 30 minutes at 4° C. After extensive washing in PBS/BSA/NaN₃, cells were fixed in 2% formaldehyde in PBS/BSA/NaN₃ for 30 minutes at 4° C.

For experiment [11], the target named is T8, chimeric human/cynomolgus monkey CD89-II on HEK293F cells (human/cynomolgus chimera, UniProt P24071 22-287).
T8 construct: also called dIle47 - Ile71 human EC1-CD89; II (47-71)
T8 chain: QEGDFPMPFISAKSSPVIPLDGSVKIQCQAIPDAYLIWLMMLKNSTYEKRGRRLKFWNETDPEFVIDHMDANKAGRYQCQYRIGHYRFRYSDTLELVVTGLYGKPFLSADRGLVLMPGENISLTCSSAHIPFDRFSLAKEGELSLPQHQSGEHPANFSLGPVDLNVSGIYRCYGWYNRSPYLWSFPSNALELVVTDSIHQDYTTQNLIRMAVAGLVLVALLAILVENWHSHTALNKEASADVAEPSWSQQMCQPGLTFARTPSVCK
Briefly: FACS, 10 µg/mL, transiently transfected HEK293F.
Method: as §3

Experiment [12] concerns the target T9, chimeric human/cynomolgus monkey CD89-IV on HEK293F cells (human/cynomolgus chimera, UniProt P24071 22-287).
T9 construct: also called dArg97 - Gly121 human EC1-CD89
T9 chain: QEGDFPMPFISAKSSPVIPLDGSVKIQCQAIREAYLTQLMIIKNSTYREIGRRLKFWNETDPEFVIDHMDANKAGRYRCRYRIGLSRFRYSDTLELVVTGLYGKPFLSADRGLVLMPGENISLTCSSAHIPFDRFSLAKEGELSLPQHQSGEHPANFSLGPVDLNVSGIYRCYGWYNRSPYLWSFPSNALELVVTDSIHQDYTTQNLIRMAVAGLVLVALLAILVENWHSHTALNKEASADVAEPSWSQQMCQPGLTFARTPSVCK
The experiment in a line: FACS, 10 µg/mL, transiently transfected HEK293F.
Method: as §3

Experiment [13] concerns the target T2, recombinant C-terminal …. The experiment in a line: ELISA, antibody before serum IgA on coated rhuCD89; IgA detected. (In general: An ELISA detects its analyte on a solid surface through an enzyme-linked reagent.)
For experiment [14], the target named is T2, recombinant C-terminal …. The experiment in a line: BLI (Octet RED96), biotinylated Ab on streptavidin tips, rhuCD89 analyte, 1:1 model.
Method: Equilibrium dissociation constants (KD) were determined using a 1:1 Langmuir binding model in Octet® RED96 software (ForteBio).

B1: CD89/IgA blocking mouse anti-human CD89-specific antibody 10E7 (antibody, V domains shown)
VH: EVQLVESGGGLVQPGGSLKLSCAASGLTFSSYGMSWVRQTPDKRLELVATINGNGDITYYPDSVKGRFTISRDNAKNTLYLQMSSLKSEDTAMYYCARDYDYDYAMDYWGQGTSVTVSS
VL: DIQMTQSTSSLSASLGDSVTISCRASQDIINYLNWYQQKPDGTVKLLIYYTSRLHSGVPSRFSGSGSGTEYSLTVSNLEKEDIATYFCQQGKTLPYTFGGGTKLEIK
notes: biotinylated in the Octet assay; also called mouse 10E7
Turning to B1, the EC50 in experiment [1] stood at 0.637 µg/mL; in experiment [2], 0.02 µg/mL. In addition, the “IC50 (read off the bars), binding of granulocytes to plate-bound serum IgA [Donor 2]” value in experiment [3] is approximately 0.4 µg/mL. Also, in experiment [4], the “% blocking of PE-A59 binding” value was less than 25%. For the same molecule, in experiment [5], the “% blocking of PE-MIP8a binding” value was less than 25%. Moreover, the binding result in experiment [6] is given as “no binding (tested: 10 µg/mL)”; in experiment [7], “no binding (tested: 10 µg/mL)”; in experiment [8], “binds”; in experiment [9], “binds”; in experiment [10], “binds”; in experiment [11] it was “binds”. In experiment [12], the binding result is on record as “binds”. Further, the “IC50 (read off the curve)” value in experiment [13] is approximately 0.06 µg/mL. Further, in experiment [14], the Kd is 1.67 nM. Further, the koff in experiment [14] turned out to be 0.00111 s⁻¹. The kon in experiment [14] came out at 687000 M⁻¹ s⁻¹.

The EC50 is the concentration needed to bring the measured effect to its halfway point. The term Kd denotes the free concentration of one partner at which half of the binding sites on the other are occupied at equilibrium, for simple one-to-one binding. Usually koff stands for a measure of how fast the partners let go of each other. One may read the kon as the rate constant with which the complex forms.
